Common to all, as to format: cell-based, human
The test system of one assay is BAF complex components. The assay is described as follows: anti-SMARCA4 (BRG1) IP mass spectrometry (Tables 7A-7C). The following applies: Aska-SS cells -/+ shSSX. The protocol:
Peptide abundance normalized to SMARCA4 abundance. […] SMARCC1, SS18, GFP, SMARCB1, and TBP levels are shown. […] T indicates 0-40 min timecourse; n=3 experimental replicates at each time point; error bars represent standard deviation.
Nuclear extracts were quantified by Bradford assay and 150-200 μg of protein was incubated with 2 μg of antibody in Buffer EB300 (50 mM Tris pH 7.5, 0.1% NP-40, 1 mM EDTA, 1 mM MgCl2, […] with protease inhibitor (Roche, C756U27), 1 mM DTT and 1 mM phenylmethylsulfonyl fluoride (PMSF)) overnight at 4° C. Each sample was then incubated with Protein G Dynabeads® (Thermo Scientific) for 2-3 hours. Beads were washed three times with Buffer EB300 followed by elution with 20 μL of elution buffer (NuPage™ LDS buffer (2×) (Life Technologies) containing 100 mM DTT and water).

The next assay relates to Barr bodies (inactive X). The assay is described as follows: Immunofluorescence, Barr body localization. The following applies: RING1A/1B-dKO HEK-293T cells. The procedure:
Immunofluorescent images were obtained as previously described (Daou et al. (2011) Pro. Nat. Acad. Sci. U.S.A 108:2747-2752). Following lentiviral infection and/or drug treatment, cells were prepared by fixation in 3% PFA-PBS and then were permeabilized with PBS 0.1% NP40. Following incubation with primary antibodies, the Anti-rabbit Alexa Fluor® 594 and Anti-mouse Alexa Fluor® 488 (Life Technologies) secondary antibodies were used for visualization. Staining with 4′,6-diamidino-2-phenylindole (DAPI) was used to visualize nuclei. Images were acquired using Zeiss Axio Imager Z2 microscope and images were processed using ImageJ program (NIH).

Another assay relates to H2A K119Ub. Put plainly: Immunoblot of H2A K119Ub deposition in RING1A/B dKO 293T cells rescued with RING1B variants. The note with it: RING1A/1B-dKO HEK-293T cells. The procedure:
Detection of proteins by western blot (WB) analysis was achieved using standard protocols with primary antibodies (Table 4). […] The membranes were then blocked in 5% milk and incubated with primary antibody in PBST over night at 4° C. Following incubation with the primary antibody, membranes were washed 3× in PBST, incubated with IRDye® (LI-COR Biosciences) secondary antibodies for 3 hours, washed 3× in PBST with a final PBS wash, and then visualized by the LI-COR Odyssey® Imaging System (LI-COR Biosciences).
In general terms: In western blotting, separated proteins are transferred to a membrane and probed.

B1: BCL7B: BAF complex subunit quantified in the IP MS (protein, UniProt Q9BQE9 1-202, looked up)
B-cell CLL/lymphoma 7 protein …: MSGRSVRAETRSRAKDDIKKVMAAIEKVRKWEKKWVTVGDTSLRIFKWVPVTDSKEKEKSKSNSSAAREPNGFPSDASANSSLLLEFQDENSNQSSVSDVYQLKVDSSTNSSPSPQQSESLSPAHTSDFRTDDSQPPTLGQEILEEPSLPSSEVADEPPTLTKEEPVPLETQVVEEEEDSGAPPLKRFCVDQPTVPQTASES
In the case of B1, in the assay with BAF complex components (Rep 1), the “Aska (shControl)/Aska (shSS18-SSX) LFQ Intensity (Norm to SMARCA4 Rep 1)” value was determined as 1.339. Further, in the assay on BAF complex components (Rep 2), the “Aska (shControl)/Aska (shSS18-SSX) LFQ Intensity (Norm to SMARCA4 Rep 2)” value stood at 1.126.

B2: WT RING1B: wild-type RING1B re-expressed in RING1A/1B-dKO cells (protein, UniProt Q99496 2-336, looked up)
E3 ubiquitin-protein ligase …: SQAVQTNGTQPLSKTWELSLYELQRTPQEAITDGLEIVVSPRSLHSELMCPICLDMLKNTMTTKECLHRFCADCIITALRSGNKECPTCRKKLVSKRSLRPDPNFDALISKIYPSRDEYEAHQERVLARINKHNNQQALSHSIEEGLKIQAMNRLQRGKKQQIENGSGAEDNGDSSHCSNASTHSNQEAGPSNKRTKTSDDSGLELDNNNAAMAIDPVMDGASEIELVFRPHPTLMEKDDSAQTRYIKTSGNATVDHLSKYLAVRLALEELRSKGESNQMNLDTASEKQYTIYIATASGQFTVLNGSFSLELVSEKYWKVNKPMELYYAPTKEHK
For the molecule B2, the “SS18-SSX / SSX localization after RING1B rescue” value (“SS18-SSX / SSX localization” below) in the assay on Barr bodies (inactive X) is listed as “able to completely rescue SSX localization”.

B3: I53A/D56K: RING1B point mutant disrupting the E2 binding interface (protein, UniProt Q99496 2-336, looked up, variant I53A D56K)
E3 ubiquitin-protein ligase …: SQAVQTNGTQPLSKTWELSLYELQRTPQEAITDGLEIVVSPRSLHSELMCPACLKMLKNTMTTKECLHRFCADCIITALRSGNKECPTCRKKLVSKRSLRPDPNFDALISKIYPSRDEYEAHQERVLARINKHNNQQALSHSIEEGLKIQAMNRLQRGKKQQIENGSGAEDNGDSSHCSNASTHSNQEAGPSNKRTKTSDDSGLELDNNNAAMAIDPVMDGASEIELVFRPHPTLMEKDDSAQTRYIKTSGNATVDHLSKYLAVRLALEELRSKGESNQMNLDTASEKQYTIYIATASGQFTVLNGSFSLELVSEKYWKVNKPMELYYAPTKEHK
B3: the “SS18-SSX / SSX localization” value in the assay with Barr bodies (inactive X) was “unable to recruit SS18-SSX”.

B4: I53A: widely-used RING1B I53A mutant (protein, UniProt Q99496 2-336, looked up, variant I53A)
E3 ubiquitin-protein ligase …: SQAVQTNGTQPLSKTWELSLYELQRTPQEAITDGLEIVVSPRSLHSELMCPACLDMLKNTMTTKECLHRFCADCIITALRSGNKECPTCRKKLVSKRSLRPDPNFDALISKIYPSRDEYEAHQERVLARINKHNNQQALSHSIEEGLKIQAMNRLQRGKKQQIENGSGAEDNGDSSHCSNASTHSNQEAGPSNKRTKTSDDSGLELDNNNAAMAIDPVMDGASEIELVFRPHPTLMEKDDSAQTRYIKTSGNATVDHLSKYLAVRLALEELRSKGESNQMNLDTASEKQYTIYIATASGQFTVLNGSFSLELVSEKYWKVNKPMELYYAPTKEHK
In the case of B4, the “SS18-SSX / SSX localization” value with Barr bodies (inactive X) was “little effect on SSX targeting”. Moreover, in the assay with H2A K119Ub, the H2A ubiquitination entry is “only partially attenuated H2A ubiquitination”.

B5: R91E: ligase-deficient RING1 point mutant, E2 binding interface (protein, UniProt Q99496 2-336, looked up, variant R91E)
E3 ubiquitin-protein ligase …: SQAVQTNGTQPLSKTWELSLYELQRTPQEAITDGLEIVVSPRSLHSELMCPICLDMLKNTMTTKECLHRFCADCIITALRSGNKECPTCEKKLVSKRSLRPDPNFDALISKIYPSRDEYEAHQERVLARINKHNNQQALSHSIEEGLKIQAMNRLQRGKKQQIENGSGAEDNGDSSHCSNASTHSNQEAGPSNKRTKTSDDSGLELDNNNAAMAIDPVMDGASEIELVFRPHPTLMEKDDSAQTRYIKTSGNATVDHLSKYLAVRLALEELRSKGESNQMNLDTASEKQYTIYIATASGQFTVLNGSFSLELVSEKYWKVNKPMELYYAPTKEHK
B5: the “SS18-SSX / SSX localization” value with Barr bodies (inactive X) was “unable to recruit SS18-SSX”.

The values are drawn from patent US20250283871A1, “COMPOSITIONS AND METHODS FOR MODULATING THE INTERACTION BETWEEN SS18-SSX FUSION ONCOPROTEIN AND NUCLEOSOMES” (Dana-Farber Cancer Institute, Inc., priority 2020, published 2025).
